This series is described as follows: protein stability index of a GFP-peptide fusion (GPS, HEK-293T) (PSI 1-6); higher = more stable.
Setting [1] is: treatment: DMSO, c terminus: a fixed tail appended.
The mark [2] stands for this setting: treatment: MLN4924 1 uM, 8 h, c terminus: a fixed tail appended.

± gives the standard deviation.
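Further: 24-mer peptide tiles fused after GFP, lentivirally expressed, FACS-sorted into six equal bins by GFP/DsRed ratio, decoded by Illumina sequencing, PSI is the read-weighted mean bin number.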

As for RTLPAFQVPYPPRQLLRDFQSRLP [P3H4], the protein stability index by setting is: under setting [1], 2.76 ± 0.2; under setting [2], 2.92 ± 0.54.
RTVNALEIELQAQHNLRYSLENTL [KRT33B]: the protein stability index is 2.31 ± 0.25 under setting [1] and 2.29 ± 0.22 under setting [2].
Consider RVAEVSRVRVELQEQNGRLQAELA [LRRC45], for which the protein stability index runs as follows: under setting [1], 4.11 ± 0.3; under setting [2], 4.19 ± 0.13.
Take RVNEKEIVRLRTIGELLAPAAPFD [WSB1]: the protein stability index under setting [1] turned out to be 3.44 ± 0.2 and the protein stability index under setting [2] amounted to 3.5 ± 0.21.
RVWLKRDSGQYWPSIYHTMASPCS [WDFY1] returned a protein stability index under setting [1] of 2.06 ± 0.27 and a protein stability index under setting [2] of 2.16 ± 0.21.
For RYAPLSFRNPMMSKLRNYRKDLAK [VTI1B], in that order: 2.76 ± 0.23 and 2.74 ± 0.18.
In the case of SAAPGHPQDGSYPRQADHDDHECC [KCNA1], the protein stability index was determined as 5.39 ± 0.4 under setting [1] and 5.6 ± 0.1 under setting [2].
On the same counts, the results for SAASGARFPLDSAQDPDVGTNTVS [PCDHGC5] are 5.39 ± 0.12 and 5.2 ± 0.31.
For the sequence SAEKCGPPPPIDNGDITSFLLSVY [CFHR2], the protein stability index by setting is: under setting [1], 2.4 ± 0.16; under setting [2], 2.33 ± 0.27.
With SAETGSPRLTMHYPCLEKPRIWSL [IRX6], the protein stability index runs as follows: under setting [1], 2.4 ± 0.1; under setting [2], 2.22 ± 0.43.
For SAEWFITAVGAILAGGLCVGIYAT [ACSBG2], in that order: 3.53 ± 0.57 and 3.18 ± 0.091.
SAIQALRSSVSRVFDCLKDGMRNK [MED27]: the protein stability index under setting [1] was determined as 2.7 ± 0.33 and the protein stability index under setting [2] came out at 2.49 ± 0.28.
On to SALTDRTSRAPSTYTYTSRPRALP [RSPH3], for which the protein stability index reads like this: under setting [1], 4.01 ± 0.26; under setting [2], 3.7 ± 0.29.
For SAPPITPECRQVLKTSRKDVKDKE [CHGB], the protein stability index by setting is: under setting [1], 5.26 ± 0.25; under setting [2], 5.41 ± 0.22.
Turning to SAVQYFQFYGYLSQQQNMMQDYVR [CARM1], the protein stability index runs as follows: under setting [1], 2.6 ± 0.72; under setting [2], 3.35 ± 0.64.
Regarding SCQEVLRKGCLRFQLPERGSRLCL [DFFB], the protein stability index reads like this: under setting [1], 2.27 ± 0.48; under setting [2], 2.4 ± 0.29.
On the same counts, the results for SCYKGHREIARYLLEQGAQVNRRS [FEM1A] are 2.93 ± 0.14 and 3.11 ± 0.48.
For the sequence SDPEISDVDEDEPGGLVGSADVVS [PPFIA4], the protein stability index is, setting by setting: under setting [1], 5.54 ± 0.34; under setting [2], 5.35 ± 0.45.
On the same counts, the results for SDSAPRNKISRFQAPISAPEYTYG [MFF] are 3.59 ± 0.71 and 3.56 ± 0.21.
Regarding SDVLIGDILVLLGASLYAISNVCE [SLC35F2], the protein stability index runs as follows: under setting [1], 2.79 ± 0.28; under setting [2], 3.36 ± 0.67.
For the sequence SEKAANDDHSVRVAREDVRESCPP [CPXM2], the protein stability index reads like this: under setting [1], 5.49 ± 0.22; under setting [2], 5.44 ± 0.061.
On to SELERESKVVVPPLPGKAFLRQLP [SNX3], for which the protein stability index reads like this: under setting [1], 3.67 ± 0.18; under setting [2], 3.86 ± 0.59.
SEMKKCSDYESIEVPDSYTGPRLS [PPEF2] came in with a protein stability index under setting [1] of 4.58 ± 0.35 and a protein stability index under setting [2] of 4.53 ± 0.11.
As for SEWQRKLEAAEALLTLRNSAQAPP [DMRTC1], the protein stability index runs as follows: under setting [1], 4.45 ± 0.55; under setting [2], 4.63 ± 0.26.
With SFRELLTFFCTNATIHGAIRLVCS [SCNN1D], the protein stability index was 2.85 ± 0.36 under setting [1] and 2.99 ± 0.39 under setting [2].
Consider SFVDKLLDLMPRLMTSKPAEVVKI [INTS4], for which the protein stability index under setting [1] was determined as 2.73 ± 0.64 and the protein stability index under setting [2] was found to be 2.61 ± 0.63.
In the case of SFVVLLYILDNETNFVVQVSVFIG [CLPTM1], the protein stability index runs as follows: under setting [1], 3.15 ± 0.41; under setting [2], 3.39 ± 0.56.
For SGGQTSWDSGCLAPPSTRTSHSLP [PLEKHN1], in that order: 4.1 ± 0.068 and 3.98 ± 0.21.
With SGMTEVERTYSANCSDFLESKGCF [SPATS1], the protein stability index by setting is: under setting [1], 3.62 ± 0.24; under setting [2], 3.62 ± 0.43.
As to SGPAASEHSHRSHHSLASSLRSHH [DVL3], the protein stability index came to 3.92 ± 0.16 under setting [1] and 3.91 ± 0.33 under setting [2].
Take SGSGGTVAPATMGSARSHASSRAS [ZBTB22]: the protein stability index under setting [1] stood at 4.77 ± 0.18 and the protein stability index under setting [2] stood at 4.68 ± 0.24.
For the sequence SGSGKSGGYGFGRGRASGFAGSMF [KRT71], the protein stability index reads like this: under setting [1], 2.8 ± 0.24; under setting [2], 2.69 ± 0.41.
SIESIKWMIEEKATITSRGSSLSG [LURAP1L] came in with a protein stability index under setting [1] of 3.1 ± 0.2 and a protein stability index under setting [2] of 3.39 ± 0.41.
For SIIECDMNVDFDAPLGYKEPERQV [UFD1], in that order: 4.27 ± 0.22 and 4.31 ± 0.18.
Consider SKARRKKIMIIICCVILGIVIAST [STX1A], for which the protein stability index by setting is: under setting [1], 2.69 ± 0.23; under setting [2], 2.67 ± 0.33.
As to SKLLLSGTADGADLRTVDPETQAR [ANKRD17], the protein stability index under setting [1] stood at 5.08 ± 0.35 and the protein stability index under setting [2] amounted to 5.13 ± 0.26.
With SLASASPPLSGRSTPKLTSRSAAQ [PPFIA4], the protein stability index came to 4.5 ± 0.31 under setting [1] and 4.6 ± 0.14 under setting [2].
For SLDESVIYGPGNLSTNNNTLRDHF [SLC2A12], the protein stability index turned out to be 3.63 ± 0.31 under setting [1] and 3.6 ± 0.27 under setting [2].
For SLHDHDGSSGASDQDTLAPLPHPG [DVL3], the protein stability index reads like this: under setting [1], 5.33 ± 0.25; under setting [2], 5.19 ± 0.33.
In the case of SLKRHLKTHTGEKPHRCHNCGKSF [ZNF449], the protein stability index is, setting by setting: under setting [1], 2.91 ± 0.56; under setting [2], 2.97 ± 0.15.
With SLNGVYPRMNEVYTRLGEMNNAVR [CEP70], the protein stability index by setting is: under setting [1], 2.55 ± 0.21; under setting [2], 3.08 ± 0.31.
For SLREYNDFLEEVEEIVFNLTNNVD [MNAT1], in that order: 2.6 ± 0.47 and 3.13 ± 0.44.
As for SNLLKAGFIRHTVNKITFSEQCYY [DVL3], the protein stability index turned out to be 2.3 ± 0.39 under setting [1] and 2.39 ± 0.3 under setting [2].
Take SNLSYHLEKNHPEEFCEFVKSNTE [ZBED1]: the protein stability index came to 4.72 ± 0.18 under setting [1] and 4.69 ± 0.29 under setting [2].
As to SPCLPEAEAMFAINADGVGDAKD [RAD51], the protein stability index stood at 5.38 ± 0.16 (treatment: DMSO, c terminus: native) and 5.34 ± 0.14 (treatment: MLN4924 1 uM, 8 h, c terminus: native).
SPEVLRKDPYGKPVDLWACGVILY [CAMK2A] yielded a protein stability index under setting [1] of 2.67 ± 0.56 and a protein stability index under setting [2] of 2.49 ± 0.49.
Regarding SPEWDTVTPEAKNLINQMLTINPA [CAMK2B], the protein stability index amounted to 3.84 ± 0.18 under setting [1] and 3.86 ± 0.21 under setting [2].
Turning to SPFSPGLFHRLDEDWDSALFAELG [ATF6], the protein stability index runs as follows: under setting [1], 2.6 ± 0.28; under setting [2], 2.44 ± 0.16.
For the sequence SPLTLAACGGHVELAALLIERGAS [ANKRD17], the protein stability index was determined as 2.48 ± 0.33 under setting [1] and 2.48 ± 0.31 under setting [2].
As for SPLYADPYTPPATSHRRVTDVRGL [PLEKHN1], the protein stability index stood at 3.76 ± 0.35 under setting [1] and 3.63 ± 0.35 under setting [2].
On the same counts, the results for SPRTRGSWSQPQPLKAPCLNGDTT [RASAL3] are 3.92 ± 0.11 and 4.03 ± 0.23.
On the same counts, the results for SPSHSPEHRRTARRTPPGQQRPHP [ELOA2] are 5.06 ± 0.18 and 5.06 ± 0.22.
In turn, SQIHNNGQSDFRPKNGRHAWIWHD [LOXL2] came in with a protein stability index under setting [1] of 3.31 ± 0.35 and a protein stability index under setting [2] of 3.22 ± 0.22.
Turning to SQIQGHKEMSKVWNDLRPKLSCLF [SNX8], the protein stability index was found to be 2.2 ± 0.35 under setting [1] and 2.22 ± 0.22 under setting [2].
For SRARSASSPRGMVRVCDLLLKKKP [ANKRD17], in that order: 3.61 ± 0.39 and 3.51 ± 0.4.
On to SRRIYRCRNCINLQNEAQKRESFL [IQUB], for which the protein stability index stood at 2.17 ± 0.42 under setting [1] and 2.24 ± 0.2 under setting [2].
SSCVKILLDHNANIDIQNGFLLRY [ASB7]: the protein stability index runs as follows: under setting [1], 2.47 ± 0.43; under setting [2], 2.5 ± 0.24.
For the sequence SSEEFEDKWFRKIKDHFCPFENQF [C8orf76], the protein stability index reads like this: under setting [1], 2.87 ± 0.19; under setting [2], 2.74 ± 0.5.
Take SSFFQQFFHCYCPVGFGRRTDPNG [CRY1]: the protein stability index stood at 2.42 ± 0.52 under setting [1] and 2.11 ± 0.27 under setting [2].
Consider SSGPARGIAIVSVLVILISIVIFC [KCNA3], for which the protein stability index by setting is: under setting [1], 2.21 ± 0.21; under setting [2], 2.21 ± 0.28.
For SSKSDADSGFLGLRPTSVDPALRR [NOP53], the protein stability index reads like this: under setting [1], 4.51 ± 0.2; under setting [2], 4.51 ± 0.22.
On the same counts, the results for SSNHGCQHECVNTDDSYSCHCLKG [MATN2] are 4.95 ± 0.08 and 5.1 ± 0.2.
Turning to SSPGPWGLEALAGGDLMPAPADPT [FCHO1], the protein stability index is, setting by setting: under setting [1], 4.78 ± 0.4; under setting [2], 4.65 ± 0.23.
As to SSPRSVDSYSSTQHVPEELDLSSS [ATF6], the protein stability index is 5.29 ± 0.52 under setting [1] and 5.4 ± 0.24 under setting [2].
For SSPSNMLPVRPQTNALIGGPMPMS [CLINT1], in that order: 3.85 ± 0.22 and 3.7 ± 0.25.
For SSQERKFMEERELLGQDEETAMRK [RSPH3], in that order: 5.47 ± 0.38 and 5.51 ± 0.3.
Take SSRIEQGEWGGRHPSWPWTRCLRM: the protein stability index by setting is: under setting [1], 2.5 ± 0.19; under setting [2], 2.67 ± 0.38.
For SSSEQLQCCQTEIIELRRTVNALE [KRT36], in that order: 3.58 ± 0.12 and 3.34 ± 0.38.
Consider SSSQKEESPSTLQVLPDSESLPRS [MAGEA10], for which the protein stability index under setting [1] came to 5.36 ± 0.23 and the protein stability index under setting [2] is 5.4 ± 0.16.
The sequence SSSSRVLLRQQLMRAQAQEQERRE [TFE3] registered a protein stability index under setting [1] of 4.87 ± 0.3 and a protein stability index under setting [2] of 5.02 ± 0.22.
As for SSSSSSSPTSGSPRGSHSSALERL [LURAP1L], the protein stability index is, setting by setting: under setting [1], 4.83 ± 0.15; under setting [2], 4.91 ± 0.14.
With STCFTELQRDFLKQRPTKLKSLIR [OAS1], the protein stability index is 2.6 ± 0.17 under setting [1] and 2.66 ± 0.14 under setting [2].

Source of the values: the supplement of paper PMC10567573.
